In PMC10641755, “Structural basis of aggregate binding by the AAA+ disaggregase ClpG” (The Journal of Biological Chemistry, 2023):

Experiments:
[1] = target: Firefly Luciferase, heat-aggregated (Firefly) [luciferase: P08659]
[2] = target: ClpG N1 core domain (N1∗), residues 1 to 46 (Pseudomonas aeruginosa, 15N (13C) isotope labelled for NMR); assay: NMR titration; unlabeled peptide 134 titrated to 15N-labeled N1∗ (80 μM N1∗, up to 240 μM peptide), 1H,15N-HSQC chemical shift perturbations, 298 K, 50 mM NaH2PO4 pH 6.5, 50 mM KCl, 2 mM DTT; conditions: both partners purified

Firefly Luciferase, heat-aggregated (Firefly) [luciferase: P08659], sequence (P08659 whole entry, the tested form may be a part): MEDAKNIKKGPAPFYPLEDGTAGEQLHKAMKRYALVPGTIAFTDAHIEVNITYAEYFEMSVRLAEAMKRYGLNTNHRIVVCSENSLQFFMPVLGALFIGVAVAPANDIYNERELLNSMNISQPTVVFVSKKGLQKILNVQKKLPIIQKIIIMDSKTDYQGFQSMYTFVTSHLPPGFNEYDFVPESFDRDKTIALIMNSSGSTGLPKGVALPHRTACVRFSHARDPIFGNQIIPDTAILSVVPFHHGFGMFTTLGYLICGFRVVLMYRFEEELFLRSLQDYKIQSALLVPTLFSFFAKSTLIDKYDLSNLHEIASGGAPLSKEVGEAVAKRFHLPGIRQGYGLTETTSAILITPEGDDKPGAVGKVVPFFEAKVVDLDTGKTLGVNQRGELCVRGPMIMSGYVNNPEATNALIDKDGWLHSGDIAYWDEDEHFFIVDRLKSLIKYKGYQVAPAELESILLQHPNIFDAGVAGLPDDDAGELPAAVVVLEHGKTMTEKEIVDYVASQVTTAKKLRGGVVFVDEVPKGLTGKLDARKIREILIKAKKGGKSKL

Row | Molecule | stimulation of ClpG ATPase activity by aggregated Luciferase [1] | Kd [2]
1 | ClpG WT (P. aeruginosa ClpGGI) (enzyme) | 1.4 fold | 
2 | CWFLRYLKASKVPLN (Unlabeled peptide) [Peptide 134] |  | > 50 µM
